T1: His-MIF (His-tag/T7 gene 10 leader/Xpress-MIF fusion) (UniProt P14174 P14174:1-115)
T1 chain: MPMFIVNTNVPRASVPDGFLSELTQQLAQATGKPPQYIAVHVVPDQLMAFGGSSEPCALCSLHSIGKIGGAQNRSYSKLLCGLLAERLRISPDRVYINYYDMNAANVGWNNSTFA

B1: His_1 (ssRNA)
RNA: GGGACGCUCACGUACGCUCAGGUGAACUGGUCCGCAUUUAGCUUUCUUAUUUGCGGGUAUUCAGUGCCUGGACGUGCAGU
modifications: 3' A20 tail for capture
B2: His_6 (ssRNA)
RNA: GGGACGCUCACGUACGCUCAGGUGUAUUGGAUUUGCUCCGAGGGUGUAGACCCCACAGAUUCAGUGCCUGGACGUGCAGU
modifications: 3' A20 tail for capture
B3: His_3 (ssRNA)
RNA: GGGACGCUCACGUACGCUCAGGUGUACUGGCACUACUGAAAUUUCAUUUGAGUAGGUCUGUCAGUGCCUGGACGUGCAGU
modifications: 3' A20 tail for capture
B4: His_4 (ssRNA)
RNA: GGGACGCUCACGUACGCUCAUAAGGGUGUACUGGCGAUUGUUGGGACGCACUUCAAUUUGUCAGUGCCUGGACGUGCAGU
modifications: 3' A20 tail for capture
B5: His_5 (ssRNA)
RNA: GGGACGCUCACGUACGCUCAGAACCCGUAUUGGUCACAGGUGGAUUGGUCUAUAUUGUUAUCAGUGCCUGGACGUGCAGU
modifications: 3' A20 tail for capture
B6: His_2 (ssRNA)
RNA: GGGACGCUCACGUACGCUCAGGUGAAUUGGCCGCCGUUCUUUCCGUGGAAUGACGCGAUGUCAGUGCCUGGACGUGCAGU
modifications: 3' A20 tail for capture
B7: His_10 (ssRNA)
RNA: GGGACGCUCACGUACGCUCAUUAGCUUAGCUUCAUGCCCGGGUGUACUGGAGAUCUCUUAUCAGUGCCUGGACGUGCAGU
modifications: 3' A20 tail for capture
B8: #47s (ssRNA)
RNA: GGGUACGCUCAGGUAUAUUGGCGCCUUCGUGGAAUGUCAGUGCCUGGACGUGCAGU
modifications: 3' A20 tail for capture
B9: #718 (ssRNA)
RNA: GGGACGCUCACGUACGCUCACUUCUUUCCCACUCACGUCUCGGUUUUAUUGGUCCAGUUUUCAGUGCCUGGACGUGCAGU
modifications: 3' A20 tail for capture
B10: #708 (ssRNA)
RNA: GGGACGCUCACGUACGCUCACGGUUAUUGGCGGAGGAUCUGUCAUGGCAUGCCUCGACUGUCAGUGCCUGGACGUGCAGU
modifications: 3' A20 tail for capture
B11: #713 (ssRNA)
RNA: GGGACGCUCACGUACGCUCACAACACUCGAAGGGUUUAUUGGCCCCACCAUGGUGGAAUGUCAGUGCCUGGACGUGCAGU
modifications: 3' A20 tail for capture
B12: #704 (ssRNA)
RNA: GGGACGCUCACGUACGCUCAUGUUCCUUUGGGUUAUUGGCUCCUUGUUGACCAGGGGAUGUCAGUGCCUGGACGUGCAGU
modifications: 3' A20 tail for capture
B13: #716 (ssRNA)
RNA: GGGACGCUCACGUACGCUCACCUGUUUUGUCUAGGUUUAUUGGCGCUUAUUCCUGGAAUGUCAGUGCCUGGACGUGCAGU
modifications: 3' A20 tail for capture
B14: #714 (ssRNA)
RNA: GGGACGCUCACGUACGCUCAGGUUUAUUGGUGCCGUGUAGUGGAAUAUCAGUGCCUGGACGUGCAGU
modifications: 3' A20 tail for capture
B15: #733 (ssRNA)
RNA: GGGACGCUCACGUACGCUCACUUCCCUAGACCCUCCAGGUUACAGGCGCCGCCCGGAAUGUCAGUGCCUGGACGUGCAGU
modifications: 3' A20 tail for capture
B16: #746 (ssRNA)
RNA: GGGACGCUCACGUACGCUCAGGUGAAUUGGCACUUCUUUAUCUACGGAUCGAGUCGGAUGUCAGUGCCUGGACGUGCAGU
modifications: 3' A20 tail for capture
B17: #727 (ssRNA)
RNA: GGGACGCUCACGUACGCUCACUCAGGUGAUUGGCGCUAUUUAUCGAUCGAUAAUUGAAUGUCAGUGCCUGGACGUGCAGU
modifications: 3' A20 tail for capture
B18: #701 (ssRNA)
RNA: GGGACGCUCACGUACGCUCACCGGGUUAUUGGCGCAAUAUUGGUAUCCUGUAUUGGUCUGUCAGUGCCUGGACGUGCAGU
modifications: 3' A20 tail for capture
B19: shot47 (ssRNA)
RNA: GGGACGCUCACGUACGCUCACGUCCGAUCGAUACUGGUAUAUUGGCGCCUUCGUGGAAUGUCAGUGCCUGGACGUGCAGU
modifications: 3' A20 tail for capture

Biological target: T1, His-MIF (His-tag/T7 gene 10 …)
Assay: SPR; 600 nM His-MIF; excellent binding
Conditions: MIF 115 aa; ATGen
Experimental: (§1) A molecular interaction between each of the RNA aptamers and each of fusion proteins, i.e., a binding ability of each of the RNA aptamers to each of the fusion proteins was analyzed using surface plasmon resonance. The analysis of the binding ability was performed using BiacoreX (GE Healthcare UK Ltd.) according to the instruction thereof. Specifically, first, polyadenine having 20 bases was added to the 3′-end of the RNA aptamer. Thus, polyadenine-added RNA aptamer was prepared. This was then heated at 95° C. for 5 minutes and rapidly cooled on ice. Biotinylated polythymine having 20 bases obtained by biotinylating the 5′-end of polythymine had been bound to a streptavidin chip (Sensor chip SA, GE Healthcare UK Ltd.). The polyadenine-added RNA aptamer was introduced into a flow cell on the streptavidin chip using a running buffer. At this stage, the polyadenine-added RNA aptamer was immobilized on the chip via the biotinylated polythymine by complementary binding between poly A of the polyadenine-added RNA aptamer and the biotinylated polythymine. […] Subsequently, HBS (Hepes Buffered Saline) containing the fusion protein with a predetermined concentration was introduced into the chip using a running buffer, and a signal (RU) was measured. […]
A binding ability of each of these RNA aptamers to His-MIF was analyzed by surface plasmon resonance in the same manner as in “1. […]

Does B1 bind?
Result: binds

Biological target: T1, His-MIF (His-tag/T7 gene 10 …)
Assay: SPR; 600 nM His-MIF
Conditions: MIF 115 aa; ATGen
Experimental: (§2) A molecular interaction between each of the RNA aptamers and each of fusion proteins, i.e., a binding ability of each of the RNA aptamers to each of the fusion proteins was analyzed using surface plasmon resonance. The analysis of the binding ability was performed using BiacoreX (GE Healthcare UK Ltd.) according to the instruction thereof. Specifically, first, polyadenine having 20 bases was added to the 3′-end of the RNA aptamer. Thus, polyadenine-added RNA aptamer was prepared. This was then heated at 95° C. for 5 minutes and rapidly cooled on ice. Biotinylated polythymine having 20 bases obtained by biotinylating the 5′-end of polythymine had been bound to a streptavidin chip (Sensor chip SA, GE Healthcare UK Ltd.). The polyadenine-added RNA aptamer was introduced into a flow cell on the streptavidin chip using a running buffer. At this stage, the polyadenine-added RNA aptamer was immobilized on the chip via the biotinylated polythymine by complementary binding between poly A of the polyadenine-added RNA aptamer and the biotinylated polythymine. The polyadenine-added RNA aptamer was caused to bind to the biotinylated polythymine until a resonance unit (RU) (resonance unit; 1 RU=1 pg/mm²) reaches 700 RU. Subsequently, HBS (Hepes Buffered Saline) containing the fusion protein with a predetermined concentration was introduced into the chip using a running buffer, and a signal (RU) was measured. The composition of the running buffer includes 10 mmol/L HEPES (4-(2-hydroxyethyl)-1-piperazine ethanesulfonic acid), 150 mmol/L sodium chloride, 0.1 mmol/L magnesium acetate, and 0.01% Tween (registered trademark) 20 (pH 7.2). As a control, an introduction of the fusion protein and a measurement of a signal were performed in the same manner as described above using a chip to which biotinylated polythymine had been bound, on which no polyadenine-added RNA aptamer had been immobilized.
A binding ability of each of these RNA aptamers to His-MIF was analyzed by surface plasmon resonance in the same manner as in “1. (4) Molecular interaction analysis” of Example 1.

Does B2 bind?
Result: binds

Does B3 bind?
Result: binds

Does B4 bind?
Result: binds

Does B5 bind?
Result: binds

Does B6 bind?
Result: binds

Does B7 bind?
Result: binds

Biological target: T1, His-MIF (His-tag/T7 gene 10 …)
Assay: SPR; same as shot47
Conditions: MIF 115 aa; ATGen; label: biotin-T20 hybridised to tail (ELISA); stem-loop
Experimental: as §1
A binding ability of each of downsized RNA aptamers to His-MIF as a fusion protein was analyzed by the molecular interaction analysis. […]

Does GGGUAUAUUGGCGCCUUCGUGGAAUGUCAGUGCCUGG (ssRNA, 3' A20 tail for capture) [shot47sss] bind?
Result: binds

Same assay, conditions: MIF 115 aa; ATGen; stem-loop

Does B8 bind?
Result: binds

Biological target: T1, His-MIF (His-tag/T7 gene 10 …)
Assay: SPR; 600 nM His-MIF
Conditions: MIF 115 aa; ATGen
Remark: another data set of the same source
Experimental: as §2
A binding ability of each of the RNA pools in the respective rounds to His-MIF was analyzed by surface plasmon resonance in the same manner as in “1. (4) Molecular interaction analysis” of Example 1. […] N40 (control RNA) also was analyzed in the same manner as mentioned above.

For B9, which binding signal is on record?
Its binding signal is 0.75 His-MIF/RNA bonds.

B10 was tested. Which binding signal did it give?
Its binding signal is 1.16 His-MIF/RNA bonds.

For B11, which binding signal is on record?
Its binding signal is 0.88 His-MIF/RNA bonds.

How did the binding signal turn out when B12 was run?
The binding signal was 0.96 His-MIF/RNA bonds.

How did the binding signal turn out when B13 was run?
Its binding signal is 0.99 His-MIF/RNA bonds.

With B14 as the binder, how does the binding signal read?
Its binding signal is 1.01 His-MIF/RNA bonds.

With B15 as the binder, how does the binding signal read?
Its binding signal is 0.86 His-MIF/RNA bonds.

B16 was tested. Which binding signal did it give?
Its binding signal is 0.5 His-MIF/RNA bonds.

Which binding signal does the source give for B17 here?
Its binding signal is 1.05 His-MIF/RNA bonds.

With B18 as the binder, how does the binding signal read?
The binding signal was 1.32 His-MIF/RNA bonds.

Same assay, conditions: MIF 115 aa; ATGen; label: biotin-T20 hybridised to tail; stem-loop

Which binding signal does the source give for B19 here?
The binding signal was 1.88 His-MIF/RNA bonds.

Biological target: T1, His-MIF (His-tag/T7 gene 10 …)
Assay: SPR; 10 mM HEPES, 150 mM NaCl, 0.1 mM Mg acetate, 0.01% Tween 20, pH 7.2; RNA immobilised
Conditions: MIF 115 aa; ATGen; label: biotin-T20 hybridised to tail; stem-loop
Experimental: as §1

With B19 as the binder, how does the Kd read?
The Kd was 3.78 pM.

— patent US20120129720, “APTAMER THAT RECOGNIZES PEPTIDE” (KANAGAWA PREFECTURAL HOSPITAL ORGANIZATION, published 2012)
